This is an account of results in PMC10754087.

In the assay the target is Yeast Hsp90 wildtype construct without the coiled-coil motif and without cysteine mutation (yeast) (UniProt P02829). The assay can be described thus: neutron spin echo spectroscopy; Hsp90 wildtype at 50 mg mL^-1 (614 µM) in D2O buffer with 150 mM KCl, 10 mM MgCl2, 295 K; effective diffusion compared with rigid-body models of dimer and hexamer.

For orientation: stoichiometry N means the number of molecules, sites or subunits per partner or assembly. In turn, “Yeast Hsp90 wildtype construct without the coiled-coil motif and without cysteine mutation, P02829 1-709 (natural protein; other documents disagree on this pair)” showed a stoichiometry N of 6.
